For assay [1], the target named is T1, His-tagged human FcγRI (R&D, carrier-free formulation) (human, UniProt P12314 16-288).
T1 construct: also called CD64; human FcγR1
In words: AlphaScreen competition on His-tagged FcγRI; competitor biotinylated B21M LALA IgG1. For orientation: In Alpha technology, singlet oxygen from a donor bead excites a nearby acceptor bead.

The target of assay [2] is T2, human recombinant FcγRI (Sino Biological) (human, UniProt P12314 16-288, limits assumed).
T2 construct: Amine-coupled to a BIAcore CM5 chip (1500 RU); also called CD64
T2 sequence (P12314 16-288 limits assumed): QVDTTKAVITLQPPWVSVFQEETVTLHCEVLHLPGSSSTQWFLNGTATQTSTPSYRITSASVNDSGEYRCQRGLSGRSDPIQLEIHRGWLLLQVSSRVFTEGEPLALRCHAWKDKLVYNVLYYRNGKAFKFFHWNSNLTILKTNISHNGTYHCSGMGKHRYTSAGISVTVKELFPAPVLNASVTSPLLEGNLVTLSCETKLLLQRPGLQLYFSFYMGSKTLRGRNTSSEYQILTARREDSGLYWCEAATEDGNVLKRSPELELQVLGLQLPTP
In words: SPR (BIAcore), FcγRI on chip, 1:1 Langmuir model. (In general: SPR reads the build-up and loss of mass on a sensor chip optically.)

The target in assay [3] is T3, human recombinant FcγRIIIA (158F; R&D Systems) (human, UniProt P08637 17-208).
T3 construct: Amine-coupled to a BIAcore CM5 chip (1400 RU); also called CD16A
T3 sequence (P08637 17-208 limits assumed): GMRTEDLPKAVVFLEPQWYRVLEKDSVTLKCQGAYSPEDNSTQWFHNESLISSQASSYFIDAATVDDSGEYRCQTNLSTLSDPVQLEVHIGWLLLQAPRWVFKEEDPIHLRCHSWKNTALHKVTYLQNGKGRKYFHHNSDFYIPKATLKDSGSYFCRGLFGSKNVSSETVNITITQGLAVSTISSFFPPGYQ
In words: SPR (BIAcore), FcγRIIIA 158F on chip, steady-state model.

In assay [4] the target is T3, human recombinant FcγRIIIA (158F; R&D …). In words: SPR (BIAcore), FcγRIIIA 158F on chip, 1:1 Langmuir model.
The target of assay [5] is T4, His-tagged human FcγRIIA (R&D, carrier-free formulation) (human, UniProt P12318 36-218, limits assumed).
T4 construct: also called CD32A
T4 sequence (looked up): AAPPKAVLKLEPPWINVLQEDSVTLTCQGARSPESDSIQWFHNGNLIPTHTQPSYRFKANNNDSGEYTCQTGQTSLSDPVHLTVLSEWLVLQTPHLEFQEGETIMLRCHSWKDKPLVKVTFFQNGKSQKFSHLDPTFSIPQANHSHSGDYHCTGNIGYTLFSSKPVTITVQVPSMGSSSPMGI
In words: AlphaScreen competition assay; titrated antibody competes with biotinylated B21M IgG1 for His-tagged human FcγRIIA.

Assay [6] concerns the target T5, Human C1q (EMD Millipore) (human, UniProt P02745 23-245; P02746 28-253; P02747 29-245). Put plainly: SPR (BIAcore T100), antibody on CM5 chip, C1q injected, steady-state model.
Assay [7] concerns the target T6, His-tagged human FcγRIIIA (R&D, carrier-free formulation) (human, UniProt P08637 17-208).
T6 construct: also called CD16A
In words: AlphaScreen competition assay; titrated antibody competes with biotinylated B21M IgG1 for His-tagged human FcγRIIIA.

For assay [8], the target named is T4, His-tagged human FcγRIIA (R&D, …). In words: AlphaScreen competition assay; titrated antibody competes with biotinylated B21M IgG1 for His-tagged human FcγRIIA. The source holds these as a separate data set.
Assay [9] has as its target T6, His-tagged human FcγRIIIA (R&D, …). Put plainly: AlphaScreen competition assay; titrated antibody competes with biotinylated B21M IgG1 for His-tagged human FcγRIIIA. This is another data set of the same source.
The target of assay [10] is T7, His-tagged human FcγRIIB (R&D, carrier-free formulation) (human, UniProt P31994 46-217, limits assumed).
T7 construct: also called CD32B
T7 sequence (looked up): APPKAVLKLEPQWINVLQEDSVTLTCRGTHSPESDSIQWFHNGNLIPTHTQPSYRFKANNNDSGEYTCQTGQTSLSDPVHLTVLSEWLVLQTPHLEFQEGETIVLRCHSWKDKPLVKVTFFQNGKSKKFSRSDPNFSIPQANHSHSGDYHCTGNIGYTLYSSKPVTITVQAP
Put plainly: AlphaScreen competition assay; titrated antibody competes with biotinylated B21M IgG1 for His-tagged human FcγRIIB.

The target of assay [11] is T2, human recombinant FcγRI (Sino …). Put plainly: SPR (BIAcore), FcγRI on chip, steady-state model.
Assay [12] deals with T8, human recombinant FcRn (Sino Biological) (human, UniProt P55899 24-297; P61769 21-119).
T8 construct: Amine-coupled to a CM5 chip (600 RU); also called neonatal Fc receptor
T8 sequence (P55899 24-297 limits assumed, chain 1 of 2): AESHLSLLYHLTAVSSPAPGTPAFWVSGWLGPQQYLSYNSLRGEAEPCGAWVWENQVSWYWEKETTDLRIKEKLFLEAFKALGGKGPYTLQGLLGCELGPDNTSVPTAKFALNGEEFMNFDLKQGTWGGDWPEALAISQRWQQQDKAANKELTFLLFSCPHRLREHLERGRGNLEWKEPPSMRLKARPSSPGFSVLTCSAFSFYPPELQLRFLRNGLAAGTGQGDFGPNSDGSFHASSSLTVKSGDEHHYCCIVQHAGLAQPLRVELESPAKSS
T8 sequence (P61769 21-119 limits assumed, chain 2 of 2): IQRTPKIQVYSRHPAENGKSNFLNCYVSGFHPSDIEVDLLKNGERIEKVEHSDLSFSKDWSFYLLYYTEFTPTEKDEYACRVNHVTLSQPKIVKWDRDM
In words: SPR (BIAcore), FcRn on chip, pH 6.0, steady-state model.

Assay [13] deals with T2, human recombinant FcγRI (Sino …). Put plainly: SPR (BIAcore), FcγRI on chip, kinetic (koff/kon).
The target in assay [14] is T3, human recombinant FcγRIIIA (158F; R&D …). In words: SPR (BIAcore), FcγRIIIA 158F on chip, kinetic (koff/kon).
Assay [15] has as its target T9, human CD3 on CD3+ Jurkat cells (human).
T9 construct: whole, on cells
In words: flow cytometry on CD3+ Jurkat cells, bound antibody detected with anti-human IgG-Alexa488. On the technique in general: A flow cytometer gives signals particle by particle.

Assay [16] concerns the target T3, human recombinant FcγRIIIA (158F; R&D …). Put plainly: SPR (BIAcore), human FcγRIIIA (158F) amine-coupled on a CM5 chip, antibody injected.
Assay [17] addresses T5, Human C1q (EMD Millipore). Put plainly: SPR (BIAcore T100), antibody amine-coupled on a CM5 chip, human C1q injected.
Assay [18] concerns the target T1, His-tagged human FcγRI (R&D, …). Put plainly: AlphaScreen competition on His-tagged FcγRI; competitor biotinylated B21M LALA IgG1. This is another data set of the same source.
Assay [19] has the same target. Put plainly: AlphaScreen competition assay; titrated antibody competes with biotinylated B21M LALA IgG1 for His-tagged human FcγRI.

These results are taken from patent publication US20190100587A1 (COVAGEN, published 2019).

Read-outs that look alike come from different tables or passages of the source. Bounds are passed on as bounds.

T1 sequence (P12314 16-288 limits assumed): as the sequence (P12314 16-288 limits assumed) above
T6 sequence (P08637 17-208 limits assumed): as the sequence (P08637 17-208 limits assumed) above
T5 sequence (P02745 23-245 limits assumed, chain 1 of 3): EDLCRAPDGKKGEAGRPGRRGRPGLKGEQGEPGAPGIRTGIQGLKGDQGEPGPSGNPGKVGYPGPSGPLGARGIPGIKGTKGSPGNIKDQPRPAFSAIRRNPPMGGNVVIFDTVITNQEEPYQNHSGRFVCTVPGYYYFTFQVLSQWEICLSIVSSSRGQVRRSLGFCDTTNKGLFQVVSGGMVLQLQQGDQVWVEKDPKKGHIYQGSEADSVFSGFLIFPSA
T5 sequence (P02746 28-253 limits assumed, chain 2 of 3): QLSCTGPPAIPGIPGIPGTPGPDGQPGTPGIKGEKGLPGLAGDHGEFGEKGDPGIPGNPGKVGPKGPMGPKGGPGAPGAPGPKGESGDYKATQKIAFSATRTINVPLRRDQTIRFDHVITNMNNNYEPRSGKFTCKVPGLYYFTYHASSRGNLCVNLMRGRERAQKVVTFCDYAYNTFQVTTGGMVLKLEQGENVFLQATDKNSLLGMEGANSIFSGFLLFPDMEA
T5 sequence (P02747 29-245 limits assumed, chain 3 of 3): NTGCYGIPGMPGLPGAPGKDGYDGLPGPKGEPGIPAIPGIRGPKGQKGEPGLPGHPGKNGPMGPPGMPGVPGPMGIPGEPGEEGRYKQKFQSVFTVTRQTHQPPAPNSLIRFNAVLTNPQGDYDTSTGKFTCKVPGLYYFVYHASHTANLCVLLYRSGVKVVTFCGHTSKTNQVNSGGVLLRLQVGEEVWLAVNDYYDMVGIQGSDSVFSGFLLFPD
T9 sequence (P07766 23-207, chain 1 of 4): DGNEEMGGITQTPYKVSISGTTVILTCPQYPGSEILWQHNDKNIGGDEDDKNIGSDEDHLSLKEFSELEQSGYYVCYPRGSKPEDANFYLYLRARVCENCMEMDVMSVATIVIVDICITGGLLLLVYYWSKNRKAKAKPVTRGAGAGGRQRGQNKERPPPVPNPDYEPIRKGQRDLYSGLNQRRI
T9 sequence (P09693 23-182, chain 2 of 4, further chain): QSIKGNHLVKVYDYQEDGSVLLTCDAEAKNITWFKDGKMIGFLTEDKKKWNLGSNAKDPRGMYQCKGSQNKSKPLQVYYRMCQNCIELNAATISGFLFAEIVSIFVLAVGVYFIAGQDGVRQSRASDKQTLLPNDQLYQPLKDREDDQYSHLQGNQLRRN
T9 sequence (P04234 22-171, chain 3 of 4, further chain): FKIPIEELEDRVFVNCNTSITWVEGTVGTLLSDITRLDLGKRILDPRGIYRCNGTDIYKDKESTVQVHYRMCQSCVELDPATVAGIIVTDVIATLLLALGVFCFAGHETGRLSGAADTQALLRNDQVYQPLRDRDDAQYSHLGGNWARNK
T9 sequence (P20963 22-164, chain 4 of 4, further chain): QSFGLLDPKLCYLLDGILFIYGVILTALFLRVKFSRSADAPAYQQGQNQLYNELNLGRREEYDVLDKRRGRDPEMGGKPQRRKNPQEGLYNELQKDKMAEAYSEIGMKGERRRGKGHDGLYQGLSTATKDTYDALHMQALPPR

B1: mAb1 IgG1 (antibody)
heavy: not shown
light: QVVLTQSPAIMSAFPGEKVTMTCSASSSVSYMNWYQQKSGTSPKRWIYDSSKLASGVPARFSGSGSGTSYSLTISSMETEDAATYYCQQWSRNPPTFGGGTKLQITRTVAAPSVFIFPPSDEQLKSGTASVVCLLNNFYPREAKVQWKVDNALQSGNSQESVTEQDSKDSTYSLSSTLTLSKADYEKHKVYACEVTHQGLSSPVTKSFNRGEC
notes: Human IgG1 antibody specific to human CD3, wild-type Fc; also called unmodified IgG; unmutated mAb1 IgG1
In assay [1], B1 registered an IC50 of 2.27 nM. Also, in assay [1], the “IC50 relative to IgG1” value worked out at 1 fold. Moreover, the koff is 0.00729 s⁻¹ in assay [2] and 0.0214 s⁻¹ in [4]. For the same molecule, the results for the kon in assay [2] and in assay [4] were 64900 M⁻¹ s⁻¹ and 31800 M⁻¹ s⁻¹, respectively. Moreover, the Kd amounted to 956 nM in [3]; 30 nM in assay [6]; 243 nM in assay [11]; 470 nM in [12]; 112 nM in [13]; 674 nM in assay [14]. Further, the “IC50 (read off the curve)” value in assay [5] is ~200 nM; in assay [7], ~40 nM; in assay [8] it was ~200 nM; in assay [9], ~40 nM; in assay [10], ~200 nM. Moreover, the “EC50 (read off the curve)” value in [15] is ~0.1 nM.

B2: mAb1 DANAPA IgG1 (antibody)
heavy: QVQLQQSGAELARPGASVKMSCKASGYTFTRSTMHWVKQRPGQGLEWIGYINPSSAYTNYNQKFKDKATLTADKSSSTAYMQLSSLTSEDSAVYYCASPQVHYDYNGFPYWGQGTLVTVSAASTKGPSVFPLAPSSKSTSGGTAALGCLVKDYFPEPVTVSWNSGALTSGVHTFPAVLQSSGLYSLSSVVTVPSSSLGTQTYICNVNHKPSNTKVDKKVEPKSCDKTHTCPPCPAPELLGGPSVFLFPPKPKDTLMISRTPEVTCVVVAVSHEDPEVKFNWYVDGVEVHNAKTKPREEQYASTYRVVSVLTVLHQDWLNGKEYKCKVSNKALAAPIEKTISKAKGQPREPQVYTLPPSREEMTKNQVSLTCLVKGFYPSDIAVEWESNGQPENNYKTTPPVLDSDGSFFLYSKLTVDKSRWQQGNVFSCSVMHEALHNHYTQKSLSLSPGK
light: QVVLTQSPAIMSAFPGEKVTMTCSASSSVSYMNWYQQKSGTSPKRWIYDSSKLASGVPARFSGSGSGTSYSLTISSMETEDAATYYCQQWSRNPPTFGGGTKLQITRTVAAPSVFIFPPSDEQLKSGTASVVCLLNNFYPREAKVQWKVDNALQSGNSQESVTEQDSKDSTYSLSSTLTLSKADYEKHKVYACEVTHQGLSSPVTKSFNRGEC
notes: mAb1 with Fc mutations D265A, N297A, P329A (EU numbering); also called DANAPA Fc mutated mAb1
In the case of B2, in [1], the IC50 was > 1000 nM and the “IC50 relative to IgG1” value was > 400 fold. Further, the binding result in [16] was “no binding (tested: 2000 nM)”. The Kd in [12] was found to be 500 nM. Besides, the binding result in [17] is “no binding (tested: 200 nM C1q)”. Moreover, in [15], the “EC50 (read off the curve)” value is ~0.08 nM.

B3: mAb2 D5 C-LC DANAPA IgG1 (bispecific antibody)
heavy: EVQLVESGGGLVQPGGSLKLSCAASGFTFNTYAMNWVRQAPGKGLEWVARIRSKYNNYATYYADSVKDRFTISRDDSKNTAYLQMNSLKTEDTAVYYCVRHGNFGDSYVSWFAYWGQGTLVTVSSASTKGPSVFPLAPSSKSTSGGTAALGCLVKDYFPEPVTVSWNSGALTSGVHTFPAVLQSSGLYSLSSVVTVPSSSLGTQTYICNVNHKPSNTKVDKKVEPKSCDKTHTCPPCPAPELLGGPSVFLFPPKPKDTLMISRTPEVTCVVVAVSHEDPEVKFNWYVDGVEVHNAKTKPREEQYASTYRVVSVLTVLHQDWLNGKEYKCKVSNKALAAPIEKTISKAKGQPREPQVYTLPPSREEMTKNQVSLTCLVKGFYPSDIAVEWESNGQPENNYKTTPPVLDSDGSFFLYSKLTVDKSRWQQGNVFSCSVMHEALHNHYTQKSLSLSPGK
light: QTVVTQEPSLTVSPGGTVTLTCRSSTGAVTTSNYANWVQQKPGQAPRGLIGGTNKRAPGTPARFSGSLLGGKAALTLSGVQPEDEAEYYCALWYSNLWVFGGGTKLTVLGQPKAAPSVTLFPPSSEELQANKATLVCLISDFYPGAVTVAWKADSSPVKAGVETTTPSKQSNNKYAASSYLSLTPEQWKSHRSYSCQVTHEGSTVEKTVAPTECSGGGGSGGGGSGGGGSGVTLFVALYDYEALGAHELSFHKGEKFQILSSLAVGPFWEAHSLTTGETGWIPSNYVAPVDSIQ
notes: also called CD3/CD33 bispecific FynomAb with Fynomer D5; FynomAb with the DANAPA IgG Fc
On to B3, for which the IC50 in [18] came out at 800 nM. For the same molecule, the “IC50 (read off the curve)” value in [19] was ~200 nM.

For orientation: IC50 means the concentration that inhibits the measured activity by half. One may read the koff as a measure of how fast the partners let go of each other. The term kon denotes a measure of how fast the partners come together. As a reminder, the Kd is a measure of binding affinity in units of concentration. For orientation: EC50 (read off the curve) means the concentration at which the effect is half-maximal.
